Measured values taken from article PMC6947844.
Positions count from the first letter of the chain named.

B1: monoclonal antibody 3D10 (antibody, V domains shown)
VH: QVQLKQSGPGLVQPSQSLSIICTVSGFSLTRNGVHWVRQSPGKGLEWVGVIWRSGRTDYDAAFMSRLSITKDNSKSQVFFKMNSLQADDTAIYYCVKNGDDGNYGTYWGQGTLVTVSA
VL: DIVMSQSPSSLGVSVGEKVTMSCKSSQSLLDSRNQKNYLAWYQQKPGQSPKLLIYWASTRESGVPDRFTGSGSGTEFTLTISSVKAEDLAIYYCQQYYNYPYTFGGGTKLEIT
B2: monoclonal antibody 9G11 (antibody, V domains shown)
VH: B1 VH with I21T, S54G
VL: B1 VL
B3: monoclonal antibody 1D9 (antibody, V domains shown)
VH: QVQLKQSGRSLVQPSQSLSITCTVSGFSLTDYGVHWIRQSPGKGLEWLGVIWRSGRTDYNAVFMSRLSITKDNSKSQVFFKMNGLQTDDTAIYYCAKNGPFGNFAGYWGQGTPVAVSA
VL: DIVMSQSPSSLAVSVGEKVTMRCRSSQSLLDSYHQKNYLAWYLQKPGQSPKLLIYWASTRESGVPDRFTGSGSGTDFTLTISSVKAEDLAVYYCQEYYRYPYTFGGGTKLEIK
B4: monoclonal antibody 11E11 (antibody, V domains shown)
VH: B3 VH with R9P, D31N, I51K, S54G, V62A, K71R, K75R, G84S, P113L, A115T
VL: DIVMSQSPSSLAVSVGEKVSLTCKSSQSLLDNQKHYLAWYQQKPGQSPKLLIYWASTRESGVPDRFTGSGSGTEFTLTISSVKAEDLAVYYCQQFYNYPYTFGGGTKLEIK
B5: monoclonal antibody 4A4 (antibody, V domains shown)
VH: B3 VH with Q86L, T87I, D88E
VL: B3 VL with V91A
B6: monoclonal antibody 40H3 (antibody, V domains shown)
VH: QVQLKQSGPGLVQPSQSLSITCTVSGFSLTNYGIHWLRQSPGKGLEWLGMMWRGGGTDYNAAFISRLTITKDTSKSQVFFRMNNLQTNDTAIYYCARKGVGMGLGYWGQGTSVTVSS
VL: DIQMTQSPASQSASLGESVTITCLASQTIGTWVAWYQQKPGRSPQLLIYGATNLADGVPSRFSGSGSGTKFSFKISSLQAEDFVSYYCQQLYSNPYTFGGGTKLEIK
B7: monoclonal antibody 11G3 (antibody, V domains shown)
VH: QVQLKQSGPSLVQPSQSLSITCTVSGFSLTNYGVHWVRQSPGKGLEWLGVMWRGGRTDYNAAFMSRLSITKDNSRSQVFFKMNSLQTDDAAIYYCAKNGPFGNFAGYWGQGTLVTVST
VL: B4 VL with A12P, Q27R

Tests used:
[1] = biological target: wtEGFR at physiological levels on WI-38 cells (human (endogenous in WI-38)) (UniProt P00533); assay: […], FACS buffer
[2] = biological target: human wtEGFR on F98_(EGFR) cells (human) (UniProt P00533); assay: […], FACS buffer

Binder	median fluorescence intensity [1] [units]	median fluorescence intensity [2] [units]
B1	< 100	
B2	< 100	
B3	< 100	
B4	< 100	
B5	< 100	
B6	< 100	187
B7	< 100	
